Test results taken from patent US6979673 (University of Pennsylvania, dated 2005).

T1: PRL (human prolactin, untagged or form not specified: serum PRL; PRL added to cell cultures) (human, UniProt P01236 29-227)
T1 sequence (looked up): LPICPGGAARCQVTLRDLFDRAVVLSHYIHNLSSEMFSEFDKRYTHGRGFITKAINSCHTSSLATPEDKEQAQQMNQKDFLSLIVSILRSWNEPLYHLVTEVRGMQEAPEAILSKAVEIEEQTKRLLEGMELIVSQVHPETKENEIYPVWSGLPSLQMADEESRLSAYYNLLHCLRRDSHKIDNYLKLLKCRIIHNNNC

B1: His-tagged CypB (cyclophilin B, recombinant, V5/His-tagged, from Drosophila S2 cells) (enzyme)
chain: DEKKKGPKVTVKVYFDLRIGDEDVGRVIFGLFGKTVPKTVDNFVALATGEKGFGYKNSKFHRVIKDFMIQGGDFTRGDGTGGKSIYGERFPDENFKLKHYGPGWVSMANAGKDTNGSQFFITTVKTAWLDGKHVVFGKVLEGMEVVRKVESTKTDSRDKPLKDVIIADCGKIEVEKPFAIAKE
notes: also called wild-type CypB; sepharose-conjugated, recombinant CypB; not shown: C-terminal bifunctional V5/His-tag of vector pAc5/V5-HisA
B2: myc-tagged PRL (recombinant human prolactin from Drosophila S2 cells) (ligand, UniProt P01236 29-227, looked up, not shown: small tags and cut ends)
chain: LPICPGGAARCQVTLRDLFDRAVVLSHYIHNLSSEMFSEFDKRYTHGRGFITKAINSCHTSSLATPEDKEQAQQMNQKDFLSLIVSILRSWNEPLYHLVTEVRGMQEAPEAILSKAVEIEEQTKRLLEGMELIVSQVHPETKENEIYPVWSGLPSLQMADEESRLSAYYNLLHCLRRDSHKIDNYLKLLKCRIIHNNNC
notes: mature

Tests used:
growth hormone (GH) = growth hormone (GH) (human, UniProt P01241 27-217); assay: cell-based or functional assay
[1] = molecular target: T1, PRL (human prolactin, untagged or form …); assay: cell-based or functional assay
[2] = molecular target: B2; assay: co-immunoprecipitation of admixed purified proteins, with cyclosporin A against without
Procedure: Immunoblots were blocked for one hour at room temperature with 5% milk in PBS containing 1% TWEEN-20 (PBST) and immunoblotted with a monoclonal anti-myc antibody (1:1000, mAb 9E10) for one hour. Immunoblots were analyzed by incubation with an anti-mouse secondary antibody conjugated to horseradish peroxidase (1:2000, Boehringer Mannheim) for one hour followed by incubation with ECL Plus (Amersham Pharmacia Biotech) amnd exposure to Biomax film (Kodak).

[3] = molecular target: recombinant form of cyclophilin family member CypA (UniProt P62937 1-165, limits assumed); assay: co-immunoprecipitation of admixed recombinant proteins
Chain of recombinant form of cyclophilin family member CypA (P62937 whole entry): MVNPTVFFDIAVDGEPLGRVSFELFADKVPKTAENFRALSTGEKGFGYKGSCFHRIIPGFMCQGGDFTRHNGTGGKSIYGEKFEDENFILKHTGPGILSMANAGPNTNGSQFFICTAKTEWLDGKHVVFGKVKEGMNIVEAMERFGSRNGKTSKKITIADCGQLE

Chain of growth hormone (GH) (P01241 27-217 limits assumed): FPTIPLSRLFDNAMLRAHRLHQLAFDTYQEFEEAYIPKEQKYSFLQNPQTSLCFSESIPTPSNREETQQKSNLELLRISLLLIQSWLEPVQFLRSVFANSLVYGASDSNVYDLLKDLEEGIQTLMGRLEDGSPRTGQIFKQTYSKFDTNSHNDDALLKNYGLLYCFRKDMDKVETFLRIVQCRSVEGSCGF

Binder	GH-driven proliferation (growth hormone (GH))	PRL-driven growth of Nb2 cells (3H-thymidine) [1]	fold enhancement of the interaction on addition of CsA [2]	binding result [3]
B1	40 fold	≤ 8 fold	~10 fold	
B2				no binding
